T1: human IL-2Rβγ receptor on primary human T-cells and NK-cells (PBMCs) (human, UniProt P14784 27-551; P31785 23-369)
T1 construct: Endogenous receptor on primary cells; also called dimeric IL-2Rβγ receptor complex
T1 sequence 1: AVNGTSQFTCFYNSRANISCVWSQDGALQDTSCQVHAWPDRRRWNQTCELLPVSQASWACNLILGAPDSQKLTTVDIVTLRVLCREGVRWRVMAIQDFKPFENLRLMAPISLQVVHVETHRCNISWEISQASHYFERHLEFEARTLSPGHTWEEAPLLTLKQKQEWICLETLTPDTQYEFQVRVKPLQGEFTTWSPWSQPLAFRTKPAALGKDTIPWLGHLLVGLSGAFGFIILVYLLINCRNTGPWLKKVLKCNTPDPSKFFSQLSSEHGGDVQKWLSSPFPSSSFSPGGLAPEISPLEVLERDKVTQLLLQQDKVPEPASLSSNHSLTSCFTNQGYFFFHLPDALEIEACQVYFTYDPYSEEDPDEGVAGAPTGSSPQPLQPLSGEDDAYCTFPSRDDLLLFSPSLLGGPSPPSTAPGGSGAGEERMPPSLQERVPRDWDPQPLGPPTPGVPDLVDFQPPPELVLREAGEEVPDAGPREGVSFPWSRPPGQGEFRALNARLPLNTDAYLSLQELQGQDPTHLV
T1 sequence 2: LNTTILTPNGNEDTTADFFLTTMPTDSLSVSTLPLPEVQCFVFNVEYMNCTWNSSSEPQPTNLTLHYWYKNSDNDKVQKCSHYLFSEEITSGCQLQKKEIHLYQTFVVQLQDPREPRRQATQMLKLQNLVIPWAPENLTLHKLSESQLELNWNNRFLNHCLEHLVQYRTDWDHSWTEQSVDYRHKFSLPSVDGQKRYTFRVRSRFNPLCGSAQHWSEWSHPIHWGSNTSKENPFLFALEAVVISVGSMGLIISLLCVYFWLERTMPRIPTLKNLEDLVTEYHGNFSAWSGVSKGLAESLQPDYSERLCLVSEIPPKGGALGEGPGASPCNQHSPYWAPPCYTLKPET

T2: IL-4R (Sino Biological) (UniProt P24394 26-232)
T2 construct: also called IL-4Ra
T2 sequence (looked up): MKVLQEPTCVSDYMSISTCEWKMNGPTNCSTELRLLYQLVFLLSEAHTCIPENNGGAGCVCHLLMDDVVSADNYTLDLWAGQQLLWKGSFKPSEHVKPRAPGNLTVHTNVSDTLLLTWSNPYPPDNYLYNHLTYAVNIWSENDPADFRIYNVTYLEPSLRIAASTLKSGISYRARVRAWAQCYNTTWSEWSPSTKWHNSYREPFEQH


How the values were obtained:
[1] = biological target: T1, human IL-2Rβγ receptor on primary human …; experiment: flow cytometry cell binding on human CD8+ T-cells (PBMC), gMFI as fold over secondary antibody only
Protocol: All washes and dilutions of cells, antibodies, and reagents were performed using flow buffer (1X PBS, 1% BSA, 0.1% NaN3, pH 7.4). Staining was performed in a round-bottom 96-well plate (Corning) seeded at 100,000 cells/well, and all incubations were performed at 4° C. or on ice. […] The cells were washed twice with 200 μL flow buffer. The cells were then incubated for 30 minutes with detection antibody (Goat F(ab′)2 Anti-Human IgG-PE, Southern Biotech) at 0.625 μg/mL in flow buffer. Following 2 more washes, the cells were resuspended in a final volume of 150 μL of flow buffer. The cells were analyzed on a BD FACSCelesta or a Guava easyCyte 8-HT flow cytometer. At least 3000 events were collected, and PE geometric mean fluorescence intensity was plotted as a fold over background (cells incubated with secondary detection antibody only). In some secondary screens involving human or cynomolgus PBMCs, an additional CD4 antibody (BioLegend) and/or CD8 antibody (BioLegend) was included to further characterize cell binding.

IL-4R (Sino Biological) = biological target: T2, IL-4R (Sino Biological); experiment: Octet (BLI) off-rate, antibody captured on AHC sensors
Protocol: All off-rate measurements were performed on an Octet Qk384 instrument (ForteBio), in 96-well microplates at 25° C. using anti-human IgG Fc capture (AHC, 18-5005) sensors with a shake speed of 1000 rpm. For off-rate determination, the antibodies/antibody fragments were loaded on the AHC sensors at 5 μg/mL. Following a short baseline in kinetics buffer (0.02% Tween20, 0.1% BSA, 0.05% sodium azide, 1X PBS). Offrate measurements were done for the following: human IL-2Rβ (AcroBiosystems), human IL-2Ry (Sino Biological), cynomolgus IL-2RP (Sino Biological), cynomolgus IL-2Rγ (expressed and purified in house using ExpiCHO expression system followed by Ni-NTA His-tag purification), mouse IL-2Rγ (Sino Biological), mouse IL-2Rβ (Sino Biological), human IL-2Rα (Sino Biological), IL-4R (Sino Biological), IL-7R (Sino Biological), IL-9R (R&D Systems) and IL-21R (Sino Biological). The following antibodies were used as positive controls to verify target binding and reagent quality: anti-human IL-9R (R&D Systems), anti-human IL-21R (R&D Systems), anti-human IL-7R (R&D Systems) and anti-human IL-4Ra (R&D Systems). The loaded sensors were then submerged in wells containing antigen at 100 nM concentration for association step. Dissociation was monitored in kinetics buffer. The capture surfaces were regenerated for 60 s. ForteBio data analysis software was used to fit the data to a 1:1 binding model to extract an association rate and dissociation rate.

Row | Binder | EC50 (read off the curve) [1] [nM] | binding result (IL-4R (Sino Biological))
1 | BsAb-2 (IL2RB_F09G**IL2RG_F16B) (bispecific antibody, human IgG4, V domains shown, Heavy chain-only bispecific on silenced, stabilised human IgG4 Fc, knobs-into-holes, no light chains; not shown: C-terminal His-tag on the knob chain) V domain 1: QVQLQESGPGLVKSSETLSLTCTVSGGSISSSDWWSWVRQPPGKGLEWIGEIDHSGSTNYNPSLMSRVTISVDKSKNQFSLKLSSVTAADTAVYFCARGSWELTDAFDIRGQGTLVTVSS V domain 2: QVQLVESGGGLVKPGGSLRLSCAASGFTFSDYYMSWIRQAPGKGLEWVSYISSSGSTIYYADSVKGRFTISRDNAKNSLYLQMNSLRAEDTAVYYCARGDAVSITGDYRGQGTLVTVSS | ~10 | no binding (tested: antigen at 100 nM)
2 | BsAb-3 (IL2RB_F09G**IL2RG_F16C) (bispecific antibody, human IgG4, V domains shown, Heavy chain-only bispecific on silenced, stabilised human IgG4 Fc, knobs-into-holes, no light chains; not shown: C-terminal His-tag on the knob chain) V domain 1: QVQLQESGPGLVKSSETLSLTCTVSGGSISSSDWWSWVRQPPGKGLEWIGEIDHSGSTNYNPSLMSRVTISVDKSKNQFSLKLSSVTAADTAVYFCARGSWELTDAFDIRGQGTLVTVSS V domain 2: QVQLVESGGGLVKPGGSLRLSCAASGFTFNDYYMSWIRQAPGKGLEWVSHISSSGSTIYYADSVKGRFTVSRDNANNSLYLQMHSLRAEDTAVYYCARGDAVSITGDYRGQGTLVTVSS | ~5 | no binding (tested: antigen at 100 nM)
3 | BsAb-1 (IL2RB_F09C**IL2RG_F16A) (bispecific antibody, human IgG4, V domains shown, Heavy chain-only bispecific on silenced, stabilised human IgG4 Fc, knobs-into-holes, no light chains; not shown: C-terminal His-tag on the knob chain) V domain 1: QVQLQESGPGLVKPSGTLSLTCAVSGGSISSSDWWSWVRQPPGKGLEWIGEIDHSGSTNYNPSLMSRVTISVDKSKNQFSLKLSSVTAADTAVYFCGRGSWELSDAFDIRGQGTLVTVSS V domain 2: QVQLVESGGGLVKPGGSLRLSCAASGFTFSDYYMSWIRQAPGKGLEWVSSISSSGDTIYYADSVQGRFTLSRDNAENSLFLQMNSLRAEDTAVYYCARGDAVSITGDYRGQGTLVTVSS | – | no binding (tested: antigen at 100 nM)

The next lines start with the values.

Row | EC50 (read off the curve) [1] [nM] | binding result (IL-4R (Sino Biological)) | Binder
4 | ~5 | no binding (tested: antigen at 100 nM) | BsAb-6 (IL2RB_F18E**IL2RG_F16A) (bispecific antibody, human IgG4, V domains shown, Heavy chain-only bispecific on silenced, stabilised human IgG4 Fc, knobs-into-holes, no light chains; not shown: C-terminal His-tag on the knob chain) V domain 1: QVQLVESGGGVVQPGRSLRLSCAASGFTFSSYGMHWVRQAPGKEREWVAVISYDGSNKYYTDSVKGRFTISRDNSKNTLYLEMNSLRAEDTAVYYCARDLDYDVLTGDPVGGFDIWGQGTLVTVSS V domain 2: QVQLVESGGGLVKPGGSLRLSCAASGFTFSDYYMSWIRQAPGKGLEWVSSISSSGDTIYYADSVQGRFTLSRDNAENSLFLQMNSLRAEDTAVYYCARGDAVSITGDYRGQGTLVTVSS
5 | – | no binding (tested: antigen at 100 nM) | BsAb-4 (IL2RB_F09G**IL2RG_F18A) (bispecific antibody, human IgG4, V domains shown, Heavy chain-only bispecific on silenced, stabilised human IgG4 Fc, knobs-into-holes, no light chains; not shown: C-terminal His-tag on the knob chain) V domain 1: QVQLQESGPGLVKSSETLSLTCTVSGGSISSSDWWSWVRQPPGKGLEWIGEIDHSGSTNYNPSLMSRVTISVDKSKNQFSLKLSSVTAADTAVYFCARGSWELTDAFDIRGQGTLVTVSS V domain 2: QVQLVESGGDLVKPGGSLRLSCAASGFTFSDYYMSWLRQAPGKELEWVSHISSSGTTTYYADSVEGRFTITRDNAKNSLYLQMNSLRAEDTAVYYCARGAAVAPGFDSRGQGTLVTVSS
6 | – | no binding (tested: antigen at 100 nM) | BsAb-5 (IL2RB_F09K**IL2RG_F16B) (bispecific antibody, human IgG4, V domains shown, Heavy chain-only bispecific on silenced, stabilised human IgG4 Fc, knobs-into-holes, no light chains; not shown: C-terminal His-tag on the knob chain) V domain 1: QVQLQESSPGLVKPSETLSLTCTVSGGSISSSNWWSWVRQPPGKGLEWIGEISHSGSTNYNPSLKSRVTISVDKSKNQFSLRLSSVTAADTAVYFCGRGSWELTDAFDIRGQGTLVTVSS V domain 2: QVQLVESGGGLVKPGGSLRLSCAASGFTFSDYYMSWIRQAPGKGLEWVSYISSSGSTIYYADSVKGRFTISRDNAKNSLYLQMNSLRAEDTAVYYCARGDAVSITGDYRGQGTLVTVSS

From patent US20260102487A1 (Amgen, published 2026)
